The values that follow come from article PMC12691639.

Where only a bound is given, the exact number is not on record here.

In the test the target is His-K62-HA expressed in E. coli without the eukaryotic N-terminal signal sequence (Saccharomyces paradoxus). The experiment in a line: denaturing SDS-PAGE and western blot (heat- and detergent-resistant oligomers); E. coli membrane fractions treated with urea before boiling with gel loading buffer; high molecular weight complex taken apart into discrete oligomers. In general terms: A western blot detects proteins with antibodies after separation by electrophoresis.

In general, stoichiometry N refers to a count of units in the complex or per binding partner. Regarding “His-K62-HA expressed in E. coli without the eukaryotic N-terminal signal sequence (natural protein)”, the stoichiometry N was greater than 9.
